Measured values taken from publication PMC9232636, “Insights into the mechanism of action of the arbitrium communication system in SPbeta phages” (Nature Communications, 2022).
Where two headings read alike, the source gives them in different places.

Experiments:
[1] = molecular target: AimR from Katmira phage (AimR^Kat) (Katmira phage (resident phage of Bacillus subtilis subsp. KATMIRA1933)); test: ITC; Nano ITC Low Volume; protein 10 μM, peptide 50 μM; 25 mM Tris-HCl pH 8, 250 mM NaCl; 25 °C; biphasic thermograms fitted to a two-binding site model, one site per monomer of the AimR dimer
[2] = molecular target: AimR^Kat-N273A (Katmira phage (resident phage of Bacillus subtilis subsp. KATMIRA1933)); test: as above
[3] = molecular target: AimR from Katmira phage (AimR^Kat) (Katmira phage (resident phage of Bacillus subtilis subsp. KATMIRA1933)); test: thermal shift assay (ThermoFluor); 20 μM protein, 5× Sypro Orange, 0.5 μM peptide as printed; 20 mM Tris pH 8, 250 mM NaCl; 25 to 85 °C
[4] = molecular target: AimR from Katmira phage (AimR^Kat) (Katmira phage (resident phage of Bacillus subtilis subsp. KATMIRA1933)); test: SEC-MALS; AimR^Kat with 1 mM AimP^Kat peptide in the injected sample and 1 μM peptide in the running buffer; 5 mg/ml, KW-803 (Shodex); 25 mM Tris pH 8, 250 mM NaCl
[5] = molecular target: AimR from Katmira phage (AimR^Kat) (Katmira phage (resident phage of Bacillus subtilis subsp. KATMIRA1933)); test: SEC-MALS; apo AimR^Kat, 50 μl at 5 mg/ml on KW-803 (Shodex); 25 mM Tris pH 8, 250 mM NaCl
[6] = molecular target: AimRKat (Bacillus phage Katmira (prophage of Bacillus subtilis KATMIRA1933)) (UniProt A0A7G5CHT1); test: BLI; details: BLI: PBS (0.01% Tween, 0.1% BSA for hydration, baseline and dissociation), AimR 0.015-2.5 uM, temperature not stated; EMSA: 50 mM Tris pH 8, 250 mM NaCl, room …
[7] = molecular target: T1, AimR from B. subtilis phage SPβ (AimR^SPβ) (Bacillus subtilis phage SPβ) (UniProt O64094)
T1 sequence: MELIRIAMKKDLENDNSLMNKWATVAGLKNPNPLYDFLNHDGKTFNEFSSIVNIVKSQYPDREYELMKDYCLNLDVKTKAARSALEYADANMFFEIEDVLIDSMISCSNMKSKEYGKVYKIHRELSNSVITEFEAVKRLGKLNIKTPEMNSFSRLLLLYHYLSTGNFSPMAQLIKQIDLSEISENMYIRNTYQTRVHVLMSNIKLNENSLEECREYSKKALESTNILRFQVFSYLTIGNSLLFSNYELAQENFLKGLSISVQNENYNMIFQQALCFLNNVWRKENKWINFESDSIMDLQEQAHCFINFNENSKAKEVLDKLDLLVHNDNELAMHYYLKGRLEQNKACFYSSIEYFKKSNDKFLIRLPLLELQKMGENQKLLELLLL

[8] = molecular target: AimR^Kat-N273A (Katmira phage (resident phage of Bacillus subtilis subsp. KATMIRA1933)); test: ITC; Nano ITC Low Volume; protein 10 μM, peptide 50 μM; 25 mM Tris-HCl pH 8, 250 mM NaCl; 25 °C; biphasic thermograms fitted to a two-binding site model, one site per monomer of the AimR dimer; remark: listed apart in the source
AimRSPb-I (untagged) [9] = molecular target: T2, AimRSPb-I (untagged) (Bacillus phage SPbeta, UniProt O64094 1-386); test: BLI; BLI: PBS (0.01% Tween, 0.1% BSA for hydration, baseline and dissociation), AimR 0.015-2.5 uM, temperature not stated; EMSA: 50 mM Tris pH 8, 250 mM NaCl, room temperature 10 min, 0.5 uM peptide, gel at 4 C; details: protein: recombinant; tags: N-terminal His tag removed; chain copies: 2
T2 sequence: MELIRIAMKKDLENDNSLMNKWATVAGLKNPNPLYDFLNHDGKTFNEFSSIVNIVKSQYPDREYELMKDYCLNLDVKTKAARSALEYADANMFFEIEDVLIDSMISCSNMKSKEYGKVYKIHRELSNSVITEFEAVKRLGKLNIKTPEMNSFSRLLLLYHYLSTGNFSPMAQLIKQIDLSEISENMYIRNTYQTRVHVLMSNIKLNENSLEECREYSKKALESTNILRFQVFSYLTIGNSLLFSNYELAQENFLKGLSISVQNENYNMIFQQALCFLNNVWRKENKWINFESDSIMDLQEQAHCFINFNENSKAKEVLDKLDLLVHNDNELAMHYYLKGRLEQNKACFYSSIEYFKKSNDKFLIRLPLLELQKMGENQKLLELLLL

[10] = molecular target: T3, AimRSPb-II (C-terminal His tag) (Bacillus phage SPbeta (B. subtilis 168 …, UniProt O64094 1-386)); test: as above; details: protein: recombinant; chain copies: 2
T3 sequence: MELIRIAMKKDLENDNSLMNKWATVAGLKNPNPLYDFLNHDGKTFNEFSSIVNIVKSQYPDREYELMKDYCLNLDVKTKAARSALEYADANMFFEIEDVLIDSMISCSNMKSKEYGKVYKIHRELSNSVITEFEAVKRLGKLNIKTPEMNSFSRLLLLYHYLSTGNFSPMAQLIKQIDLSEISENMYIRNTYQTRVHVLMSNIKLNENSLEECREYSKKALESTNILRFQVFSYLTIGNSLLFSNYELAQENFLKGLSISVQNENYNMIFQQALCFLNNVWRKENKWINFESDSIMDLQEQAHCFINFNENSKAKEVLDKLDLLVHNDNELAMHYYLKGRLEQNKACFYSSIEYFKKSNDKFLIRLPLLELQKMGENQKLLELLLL

AimRSPb-I (untagged) [11] = molecular target: T2, AimRSPb-I (untagged); test: EMSA; BLI: PBS (0.01% Tween, 0.1% BSA for hydration, baseline and dissociation), AimR 0.015-2.5 uM, temperature not stated; EMSA: 50 mM Tris pH 8, 250 mM NaCl, room temperature 10 min, 0.5 uM peptide, gel at 4 C; details: protein: recombinant; tags: N-terminal His tag removed; chain copies: 2
aimX-box^Phi = test: Biolayer interferometry, AimR binding to aimX operator; set-up: species or system phage phi3T; key to kon / koff: NBD: not binding detected in the experimental conditions used. KD > 1 × 10^−6 M; details: BLI, 1:1 model
Procedure: (§1) The Binding affinity (KD), association (kon) and dissociation (koff) rate constants between AimRs and DNA were measured by biolayer interferometry (BLI) using the BLITz system (FortéBio). Biotinilated DNA probes (IDT) (Supplementary Table 3) were immobilised in Streptavidin biosensors (FortéBio) at 50 μg ml^−1. Biosensor hydration, baselines and dissociation analysis were carried out in phosphate buffer (PBS) supplemented with 0.01% tween and 0.1% BSA. Proteins were diluted in PBS. At least four different dilutions of AimR were used in a range between 0.015 and 2.5 μM. A blank using a chip without bounded DNA was used to subtract unspecific binding. Kinetic value calculations and data analysis were performed using BLItz Pro 1.2 software employing a 1:1 model to fit the data.

aimX-box^Kat = test: as above; set-up: species or system Katmira phage; details: BLI, 1:1 model
Procedure: as §1

AimR^SPβ = test: Thermal shift assay of AimR^SPβ with and without C-terminal His-tag; type: physicochemical, phage SPβ
Procedure: The thermal shift assay was conducted in a 7500 Fast Real time PCR System (Applied Biosystems) as previously described. Briefly, samples of 20 μl buffer (20 mM Tris pH 8 and 250 mM NaCl) containing 5× Sypro Orange (Sigma-Aldrich) and 20 μM of protein were loaded in 96-well PCR plates. To calculate the Tm in the presence of the peptide, 0.5 μM of GMPRGA or GIVRGA peptide was added to the mixture. Samples were heated from 25 to 85 °C in steps of one degree. Fluorescent intensity was plotted versus temperature and integrated with GraphPad Prism software using a Boltzmann model to calculate melting temperatures.

aimX-box^SPβ = test: Biolayer interferometry, AimR binding to aimX operator; set-up: species or system phage SPβ; details: BLI
Procedure: as §1

## AimP^Kat, active (mature) Katmira AimP peptide GIVRGA
[1]
  KD1 (monomer 1, two-binding site model): 4.1 nM
  KD2 (monomer 2, two-binding site model): 5.7 nM
[2]
  KD1 (monomer 1, two-binding site model): 194 nM
  KD2 (monomer 2, two-binding site model): 356 nM
[3]
  increment of the melting temperature (Tm): 20 °C

## AimR from Katmira phage (AimR^Kat) (receptor)
[4]
  stoichiometry N: 2
[5]
  stoichiometry N: 2

## GGGAAAGTTCCAGAAATTCAAAAATCAAAAAATAAGAACATGGGG (double strand) [aimX-boxPhi BLI probe (DNA_Phi3T_b)]
[6]
  Kd: > 1000 nM

## GTTGATCACTTAAATATTAAGTTTTTATAACATCTAGTGATGGCC (double strand) [aimX-boxKat BLI probe (DNA_Kat_b)]
[6]
  Kd: 23.1 nM

## GTTGATCACTTAAATATTAGGTTTTAATAACATCTAGTGATGGCC (double strand) [aimX-boxSPb BLI probe (DNA_SPb_b)]
[6]
  Kd: 21.4 nM

## GMPRGA [AimP^SPβ, the SPβ AimP peptide GMPRGA]
[7]
  phage titre (PFU/ml) after mitomycin C induction of the SPβ ΔaimR prophage complemented with AimR^SPβ, 5 μM peptide added (times (reduction of the titre)): 10
[8]
  KD1 (monomer 1, two-binding site model): 1.3 µM
  KD2 (monomer 2, two-binding site model): 1.6 µM

B1: aimX-boxSPb BLI probe (DNA_SPb_b) (dsDNA)
DNA 1: GTTGATCACTTAAATATTAGGTTTTAATAACATCTAGTGATGGCC
DNA 2: GGCCATCACTAGATGTTATTAAAACCTAATATTTAAGTGATCAAC
AimRSPb-I (untagged) [9]
  Kd: 19.3 nM
[10]
  Kd: 116 nM

B2: aimX-boxKat BLI probe (DNA_Kat_b) (dsDNA)
DNA 1: GTTGATCACTTAAATATTAAGTTTTTATAACATCTAGTGATGGCC
DNA 2: GGCCATCACTAGATGTTATAAAAACTTAATATTTAAGTGATCAAC
AimRSPb-I (untagged) [9]
  Kd: 19.6 nM
[10]
  Kd: 116 nM

B3: aimX-boxPhi EMSA probe (DNA_Phi3T) (dsDNA)
DNA 1: GTTGATGTTCCAGAAATTCAAAAATCAAAAAATAAGAACATGGCC
DNA 2: GGCCATGTTCTTATTTTTTGATTTTTGAATTTCTGGAACATCAAC
AimRSPb-I (untagged) [11]
  binding result: no binding

B4: AimR^SPβ-I: AimR^SPβ receptor without tags (protein)
chain: MELIRIAMKKDLENDNSLMNKWATVAGLKNPNPLYDFLNHDGKTFNEFSSIVNIVKSQYPDREYELMKDYCLNLDVKTKAARSALEYADANMFFEIEDVLIDSMISCSNMKSKEYGKVYKIHRELSNSVITEFEAVKRLGKLNIKTPEMNSFSRLLLLYHYLSTGNFSPMAQLIKQIDLSEISENMYIRNTYQTRVHVLMSNIKLNENSLEECREYSKKALESTNILRFQVFSYLTIGNSLLFSNYELAQENFLKGLSISVQNENYNMIFQQALCFLNNVWRKENKWINFESDSIMDLQEQAHCFINFNENSKAKEVLDKLDLLVHNDNELAMHYYLKGRLEQNKACFYSSIEYFKKSNDKFLIRLPLLELQKMGENQKLLELLLL
aimX-box^Phi; BLITz, PBS, AimR 0.015-2.5 μM
  Kd: > 1000 nM
aimX-box^Phi; PBS + 0.01% tween and 0.1% BSA
  koff: NBD^d
aimX-box^Phi; PBS
  kon: NBD^d
aimX-box^Kat; BLITz, streptavidin biosensor with biotinylated DNA, PBS, mean of five measurements
  Kd: 19.6 nM
aimX-box^Kat; PBS + 0.01% tween and 0.1% BSA
  koff: 0.078 ± 0.0025 s⁻¹
aimX-box^Kat; PBS
  kon: 3.98e+06 ± 427000 M⁻¹ s⁻¹
AimR^SPβ; 20 mM Tris pH 8, 250 mM NaCl, 20 μM protein, no peptide
  Tm: 53.6 °C
AimR^SPβ; Supplementary Fig. 5b, in °C (unit assumed)
  Tm: 53.6 ± 0.7
aimX-box^SPβ; BLITz, streptavidin biosensor with biotinylated DNA, PBS, 1:1 model, mean of five measurements, read-out: KD
  Kd: 19.3 nM
aimX-box^SPβ; PBS + 0.01% tween and 0.1% BSA, 1:1 model
  koff: 0.0726 ± 0.00229 s⁻¹
aimX-box^SPβ; PBS, 1:1 model
  kon: 3.75e+06 ± 324000 M⁻¹ s⁻¹
aimX-box^SPβ; peer review file, stated jointly for aimX-box^SPβ and aimX-box^Kat, read-out: affinity (KD)
  Kd: 19 nM
